In US20160137965A1:

Experiments:
α6β1 integrin [1] = target: α6β1 integrin (UniProt P23229); test: solid-phase binding assay: plate coated with 0.5 µg/cm^2 521E8, not dried, 10 nM α6β1 integrin
α6β1 integrin [2] = target: α6β1 integrin (UniProt P23229); test: solid-phase binding assay: plate coated with 1.0 µg/cm^2 521E8, not dried, 10 nM α6β1 integrin
α6β1 integrin [3] = target: α6β1 integrin (UniProt P23229); test: solid-phase binding assay: plate coated with 0.5 µg/cm^2 511E8, not dried, 10 nM α6β1 integrin
α6β1 integrin [4] = target: α6β1 integrin (UniProt P23229); test: solid-phase binding assay: plate coated with 1.0 µg/cm^2 511E8, not dried, 10 nM α6β1 integrin
α6β1 integrin [5] = target: α6β1 integrin (UniProt P23229); test: solid-phase binding assay: plate coated with 0.4 µg/cm^2 511E8, not dried, 10 nM α6β1 integrin
α6β1 integrin [6] = target: α6β1 integrin (UniProt P23229); test: solid-phase binding assay: plate coated with 0.75 µg/cm^2 511E8, dried 1 h at room temperature, 10 nM α6β1 integrin, absorbance at 490 nm
α6β1 integrin [7] = target: α6β1 integrin (UniProt P23229); test: solid-phase binding assay: plate coated with 0.25 µg/cm^2 511E8 with 167 µg/mL gelatin, dried 1 h, 10 nM α6β1 integrin, absorbance at 490 nm
α6β1 integrin [8] = target: α6β1 integrin (UniProt P23229); test: solid-phase binding assay: plate coated with 0.25 µg/cm^2 511E8 with 500 µg/mL gelatin, dried 1 h, 10 nM α6β1 integrin, absorbance at 490 nm
α6β1 integrin [9] = target: α6β1 integrin (UniProt P23229); test: solid-phase binding assay: plate coated with 0.4 µg/cm^2 511E8 with 0.8 µg/cm^2 211E8, dried 24 h, 10 nM α6β1 integrin, absorbance at 490 nm
α6β1 integrin [10] = target: α6β1 integrin (UniProt P23229); test: solid-phase binding assay: plate coated with 0.4 µg/cm^2 511E8 with 1.6 µg/cm^2 211E8, dried 24 h, 10 nM α6β1 integrin, absorbance at 490 nm
α6β1 integrin [11] = target: α6β1 integrin (UniProt P23229); test: solid-phase binding assay: plate coated with 0.5 µg/cm^2 511E8 alone, dried 24 h, stored 1 week at 4°C, 10 nM α6β1 integrin, absorbance at 490 nm
α6β1 integrin [12] = target: α6β1 integrin (UniProt P23229); test: solid-phase binding assay: plate coated with 0.5 µg/cm^2 511E8 with 0.1% BSA, dried 24 h, stored 1 week at 4°C, 10 nM α6β1 integrin, absorbance at 490 nm
α6β1 integrin [13] = target: α6β1 integrin (UniProt P23229); test: solid-phase binding assay: plate coated with 0.5 µg/cm^2 511E8 with 0.05% gelatin, dried 24 h, stored 1 week at 4°C, 10 nM α6β1 integrin, absorbance at 490 nm
α6β1 integrin [14] = target: α6β1 integrin (UniProt P23229); test: solid-phase binding assay: plate coated with 0.5 µg/cm^2 511E8 with 20% glucose (or some other candidates), dried 24 h, stored 1 week at 4°C, 10 nM α6β1 integrin, absorbance at 490 nm

Sequence of UniProt P23229 (P23229 other isoform, or with tags, fused parts or gaps limits assumed, chain 1 of 2): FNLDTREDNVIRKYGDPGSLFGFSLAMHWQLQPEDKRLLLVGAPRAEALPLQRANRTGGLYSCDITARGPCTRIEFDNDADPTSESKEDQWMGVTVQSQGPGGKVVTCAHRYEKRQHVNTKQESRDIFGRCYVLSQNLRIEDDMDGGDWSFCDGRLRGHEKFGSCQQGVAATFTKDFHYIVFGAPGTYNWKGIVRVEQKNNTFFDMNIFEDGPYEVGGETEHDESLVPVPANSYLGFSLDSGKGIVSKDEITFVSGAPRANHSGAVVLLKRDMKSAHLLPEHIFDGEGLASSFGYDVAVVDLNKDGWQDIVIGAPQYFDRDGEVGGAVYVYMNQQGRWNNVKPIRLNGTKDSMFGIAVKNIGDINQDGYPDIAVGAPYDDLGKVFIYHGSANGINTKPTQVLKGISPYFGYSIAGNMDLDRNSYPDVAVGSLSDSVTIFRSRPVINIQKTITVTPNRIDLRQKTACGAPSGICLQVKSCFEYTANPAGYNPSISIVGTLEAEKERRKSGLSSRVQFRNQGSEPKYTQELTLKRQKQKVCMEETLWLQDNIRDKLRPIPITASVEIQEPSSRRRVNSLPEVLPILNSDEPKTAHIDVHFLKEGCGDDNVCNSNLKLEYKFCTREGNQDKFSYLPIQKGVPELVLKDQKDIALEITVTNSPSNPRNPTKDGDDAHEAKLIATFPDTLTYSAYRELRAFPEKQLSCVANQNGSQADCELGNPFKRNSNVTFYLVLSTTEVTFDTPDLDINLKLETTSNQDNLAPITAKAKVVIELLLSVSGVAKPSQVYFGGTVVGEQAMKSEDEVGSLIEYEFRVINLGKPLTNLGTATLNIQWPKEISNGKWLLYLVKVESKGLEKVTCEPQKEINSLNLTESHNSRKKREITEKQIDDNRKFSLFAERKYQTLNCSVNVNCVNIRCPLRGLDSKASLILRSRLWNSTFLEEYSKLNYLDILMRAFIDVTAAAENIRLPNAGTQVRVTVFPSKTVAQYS
Sequence of UniProt P23229 (P05556 21-728 limits assumed, chain 2 of 2, further chain): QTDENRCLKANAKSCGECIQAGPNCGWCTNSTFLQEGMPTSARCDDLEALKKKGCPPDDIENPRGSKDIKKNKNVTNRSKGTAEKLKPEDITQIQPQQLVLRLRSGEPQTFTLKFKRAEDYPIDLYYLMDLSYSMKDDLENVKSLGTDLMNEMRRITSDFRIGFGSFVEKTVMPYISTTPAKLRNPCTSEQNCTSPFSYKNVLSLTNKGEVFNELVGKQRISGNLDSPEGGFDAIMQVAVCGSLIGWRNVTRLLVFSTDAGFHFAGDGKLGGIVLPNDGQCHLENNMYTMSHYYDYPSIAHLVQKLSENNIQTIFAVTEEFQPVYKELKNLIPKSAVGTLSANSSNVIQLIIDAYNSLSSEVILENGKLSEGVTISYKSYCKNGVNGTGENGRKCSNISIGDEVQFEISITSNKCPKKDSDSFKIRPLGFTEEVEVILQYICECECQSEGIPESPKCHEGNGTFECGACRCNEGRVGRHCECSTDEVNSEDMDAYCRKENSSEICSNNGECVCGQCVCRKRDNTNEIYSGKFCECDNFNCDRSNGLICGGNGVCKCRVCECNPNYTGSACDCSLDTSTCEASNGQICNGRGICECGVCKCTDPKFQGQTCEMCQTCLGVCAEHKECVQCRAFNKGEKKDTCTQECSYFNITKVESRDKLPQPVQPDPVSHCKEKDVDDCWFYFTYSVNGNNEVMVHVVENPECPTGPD

| absorbance at 490 nm (amount of bound α6β1 integrin) (absorbance at 490 nm) (α6β1 integrin [1]) | absorbance at 490 nm (amount of bound α6β1 integrin) (absorbance at 490 nm) (α6β1 integrin [2]) | absorbance at 490 nm (amount of bound α6β1 integrin) (absorbance at 490 nm) (α6β1 integrin [3]) | absorbance at 490 nm (amount of bound α6β1 integrin) (absorbance at 490 nm) (α6β1 integrin [4]) | absorbance at 490 nm (amount of bound α6β1 integrin) (absorbance at 490 nm) (α6β1 integrin [5]) | decrease of the amount of bound integrin after drying, against the undried control (α6β1 integrin [6]) [%] | integrin binding activity after drying (percent remaining) (α6β1 integrin [7]) [%] | integrin binding activity after drying (percent remaining) (α6β1 integrin [8]) [%] | integrin binding activity relative to undried 511E8 control (α6β1 integrin [9]) [%] | integrin binding activity relative to undried 511E8 control (α6β1 integrin [10]) [%] | integrin binding activity relative to undried 511E8 control (100%) (α6β1 integrin [11]) [%] | integrin binding activity relative to undried 511E8 control (100%) (α6β1 integrin [12]) [%] | integrin binding activity relative to undried 511E8 control (100%) (α6β1 integrin [13]) [%] | integrin binding activity relative to undried 511E8 control (100%) (α6β1 integrin [14]) [%] | Substance |
| --- | --- | --- | --- | --- | --- | --- | --- | --- | --- | --- | --- | --- | --- | --- |
| 2.75 | 2.83 | – | – | – | – | – | – | – | – | – | – | – | – | Human recombinant laminin 521E8 (from UniProt O15230 2534-3327; P55268 1573-1798; P11047 1362-1608) (ligand) |
| – | – | 2.62 | 2.96 | 1.07 | 30 | 40 | 70 | 30 | 80 | < 10 | 90 | 90 | 40 | Human recombinant laminin 511E8 (from UniProt O15230 2534-3327; P07942 1561-1786; P11047 1362-1608) (ligand) |
